Assay results: the supplement of paper PMC10126150
± gives the standard deviation of the averaged measurements.

Tested on: ATP
Experiment: switch fluorescence ratio, 500 uM ATP over buffer (Cy3 cluster intensity, sum of 5 cycles each) (fold (ratio)); higher = stronger signal-on switching upon ATP binding; sequences stand for … in TCGTCGGCAGCGTCAGATGTGTATAAGAGACAGTTTTTTTTTTTTTTTTTTTTTTTTT…TC
Conditions: aptamer strand: ATP DNA aptamer (quencher-CACCTGGGGGAGTATTGCGGAGGAAGG + anchor), 100 nM annealed; ATP concentration: 500 uM
Summary of the method: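 For every switch-domain sequence, the fluorescence ratio is the mean of per-cluster values, each being summed target-cycle Cy3 intensity over summed buffer-cycle Cy3 intensity. Clusters outside 100-1000 RFU were excluded. On a modified Illumina MiSeq flow-cell, the Cy3-labelled switching-strand clusters were annealed to 100 nM quencher-labelled ATP aptamer, imaged in selection buffer and then after 15 min with 500 uM ATP at 22 °C. Five such cycles were run, with NaOH stripping and re-annealing between them.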
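Note: ATP exposure 15 min at 22 °C before imaging.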

Sequence	switch fluorescence ratio
TCGGCTGGAA	1.027 ± 0.0025
TTTTGTTCCT	1.02 ± 0.026
CTCAGAAACG	1.03 ± 0.04
TGCGGCCGGG	1.01 ± 0.012
AAAGTGTGCT	1.01 ± 0.024
TCATAAGGGC	1.01 ± 0.12
TAATATGGGG	1.01 ± 0.039
TGATTCGTAC	1.03 ± 0.028
ATGATGACGA	1.06 ± 0.11
TCCAGATAGG	0.997 ± 0.048
GCTATGATAA	0.9933 ± 0.0072
TGTTTTTGTT	1.01 ± 0.058
GGGTCTGTTG	0.975 ± 0.013
GAAGCGCGTC	0.998 ± 0.049
ATGAAAGTAG	1.005 ± 0.0012
GAGTGCTCGA	1.01 ± 0.074
AAGTAGTAGT	1.007 ± 0.0043
ATGAGTCCGT	1.16 ± 0.017
GAATACTTCG	1.07 ± 0.016
TAGAAGTCTG	1.06 ± 0.012
AAGTAGGAGC	1.06 ± 0.19
ATATGAGTGA	0.985 ± 0.013
GGGGTCCTTA	1 ± 0.018
GGTCGGCCGG	1.0178 ± 0.00045
CGCCCGGGGG	1.32 ± 0.45
TTTAACTTAG	1.016 ± 0.0032

Sequence	switch fluorescence ratio
GGTGTTGGAG	0.997 ± 0.019
GGGGGAGGGA	0.997 ± 0.04
GGATGAGTGC	0.99 ± 0.023
AGCGTGTGCG	0.989 ± 0.055
CACTGAGCTG	1.07 ± 0.077
CCTAAAGGCT	1.0151 ± 4.7e-05
CGTTATCGTC	0.99 ± 0.0099
AGCGACGGAC	1.42 ± 0.1
GGGTCTCAGT	0.994 ± 0.032
GGTAGGGGGC	1.01 ± 0.033
TTGTAATTAA	0.9963 ± 0.0096
GCTGGCAGAC	1.23 ± 0.032
CAGTAGGGTA	1 ± 0.045
GGGTTACAGC	1 ± 0.026
TAAACACAGG	1.16 ± 0.044
GGACTACCTG	1.01 ± 0.022
TTCTAGCGAA	1.17 ± 0.22
CTTGGGGTGC	1.07 ± 0.094
TGGCATATTT	1.05 ± 0.051
CGGACTGATT	1 ± 0.064
GCTAGATCAC	1.02 ± 0.025
TCCGGCTATT	1.108 ± 0.0087
TTATAGAATG	0.985 ± 0.038
TGGAAGGTT	0.987 ± 0.019
AGATTGAGAA	0.998 ± 0.028
CGAACTCGGA	1.012 ± 0.0076

Sequence	switch fluorescence ratio
GGTGCTGTCC	1.033 ± 0.0011
GTGGAAGTCC	1 ± 0.022
TAATTTTTGC	1.02 ± 0.043
ACACACGACG	1.29 ± 0.013
AAAACATTCG	1.16 ± 0.12
ATGTAGGTTA	0.987 ± 0.018
TTTGGCTTGC	1.01 ± 0.042
CGTAAAGTAG	1.01 ± 0.022
AGTGAGGGGA	0.975 ± 0.015
AACTTATTTG	1 ± 0.028
ATTGTAATTT	1.01 ± 0.026
TGGTTAGGG	0.988 ± 0.019
ACGGGTTGGG	1.02 ± 0.017
TTGTTAGCCC	1.026 ± 0.0026
TCGGGGCAGT	2.01 ± 1.4
ACTGTTAGTA	1.01 ± 0.011
GGGAGGTTGT	0.966 ± 0.028
TGTTGGGACG	1.1 ± 0.039
CGGTACTCGA	0.993 ± 0.015
TGTTTATCGG	0.998 ± 0.041
GATGAAAAGT	0.976 ± 0.015
CGGCCTTGGT	1.01 ± 0.044
ATTTCGGAGA	0.971 ± 0.011
AGTGTGGGTA	0.99 ± 0.021
GTGGGGGGAG	1 ± 0.026
CATGTTTTTC	0.982 ± 0.033

Sequence	switch fluorescence ratio
TTGAATTTTA	0.999 ± 0.033
AAAGGGAGGG	1 ± 0.02
TCGGGATACG	1.14 ± 0.021
GTTGGTACTT	0.991 ± 0.02
TATATATCAA	1.003 ± 0.005
TTGAGTGACG	0.9845 ± 0.0025
AAGTGATTGG	0.973 ± 0.011
CACCGGAAGG	1.02 ± 0.024
TTTAAGGTGG	1.015 ± 0.0046
GCCTCTATTT	0.968 ± 0.019
GTTCGGGCTC	1.03 ± 0.019
CACTGATGCC	1.04 ± 0.019
TAAGGGTTCT	0.9916 ± 0.0089
TTACGATGTG	1.018 ± 0.0091
ACGGTTGAG	0.96 ± 0.036
TGTTTGGTTA	0.995 ± 0.017
GCGTCGCTTT	0.952 ± 0.046
TCGATGGATG	1.025 ± 0.0058
TTTATAGGTG	1.14 ± 0.089
TCCAGTAGGT	1.01 ± 0.0032
GGAATGTGAA	0.978 ± 0.019
CGAATAGGCT	1.006 ± 0.0029
TGGGGTTTTT	0.984 ± 0.026
GGGGGTTGCG	0.979 ± 0.015
TCGTGGGAAG	0.9721 ± 0.0062
TTCTTTTACG	1.049 ± 0.0082

Sequence	switch fluorescence ratio
TTCGTGATTT	1.02 ± 0.04
ATATTCTTAG	1.01 ± 0.013
CAGCGGTGGG	1.02 ± 0.029
GGATGCTAGG	1.01 ± 0.048
GGGTTTTAAC	0.9798 ± 0.0034
CAGGATTTTT	0.993 ± 0.042
CGGTATGTGA	0.985 ± 0.041
TTATAAGGTT	1.02 ± 0.023
TTGTGAGTGG	0.976 ± 0.017
AGAGGCGGGA	0.956 ± 0.11
AATGTTCATG	1.031 ± 0.0061
GGCCTATAAC	1 ± 0.021
AAGCTGGCTT	1.024 ± 0.0056
ATAAAGACGT	1.02 ± 0.037
AATGTCGCGC	0.961 ± 0.016
GGGAAGTCAC	1.121 ± 0.0039
AATAATGGTT	1.01 ± 0.013
GGGTATCCGT	0.979 ± 0.032
AAGATACGAA	1.04 ± 0.019
AGTGAGGCGG	1.02 ± 0.013
CCTCAAAAAA	2.98 ± 0.2
GATAGGTG	1.21 ± 0.1
ATGTTTCTGA	0.9851 ± 0.0032
GGGGGATATC	0.994 ± 0.06
TTGCAAGAGG	1.02 ± 0.024
AGGGAGCAGT	1.018 ± 0.01

Sequence	switch fluorescence ratio
TTTTATTCGG	0.9614 ± 0.0095
CTCCGGGCGA	4.47 ± 1
TTTCAAGGGG	0.996 ± 0.011
GCTTGCGATG	1.01 ± 0.011
GGGTAGTGCG	0.9812 ± 0.0055
CATTTTGTAT	0.998 ± 0.013
GCGATAGACG	0.99 ± 0.022
CCGGTGTTTT	1.06 ± 0.041
ATTGAGCGGT	0.983 ± 0.039
GAATTCCAGT	0.9968 ± 0.0076
GAAGCCCAGG	3.38 ± 2.6
ATTTTGCTCG	0.999 ± 0.021
ATTTTGTTCG	1.04 ± 0.011
GGTAGATTCG	0.994 ± 0.027
TCCATGGGGT	0.9836 ± 0.0079
GGCTCACGGT	0.98015 ± 0.00082
AAACTGACGG	1.37 ± 0.016
CAACGTGGGG	0.99 ± 0.017
AGTTTTTAGC	1.01 ± 0.047
CACGTGATTG	1.02 ± 0.02
GATTTGGGCG	1.038 ± 0.0054
AAATACGCAG	1.07 ± 0.1
CAGATTAAGT	0.992 ± 0.03
